Columns and labels:
Experiment in all cases: SEC-MALS; Superdex 200 Increase 5/150 GL; proteins at 3 mg/ml; 20 mM Tris-HCl pH 8.0, 300 mM NaCl, 5% glycerol, 2 mM 2-mercaptoethanol
[1] = target: VvRraA1 (RraA ortholog 1 of Vibrio vulnificus), hexahistidine-tagged (Vibrio vulnificus MO6-24/O)
[2] = target: VvRraA2 (RraA ortholog 2 of Vibrio vulnificus), hexahistidine-tagged (Vibrio vulnificus MO6-24/O)
[3] = target: the molecule itself

VvRraA1 (RraA ortholog 1 of Vibrio vulnificus), hexahistidine-tagged (natural protein)
stoichiometry N [1]: 6

VvRraA2 (RraA ortholog 2 of Vibrio vulnificus), hexahistidine-tagged (natural protein)
stoichiometry N [2]: 3

B1: E. coli RraA (natural protein)
chain: MKYDTSELCDIYQEDVNVVEPLFSNFGGRASFGGQIITVKCFEDNGLLYDLLEQNGRGRVLVVDGGGSVRRALVDAELARLAVQNEWEGLVIYGAVRQVDDLEELDIGIQAMAAIPVGAAGEGIGESDVRVNFGGVTFFSGDHLYADNTGIILSEDPLDIE
notes: RraA, regulator of ribonuclease activity A, Escherichia coli; the construct is not described here; Hexamer by SEC-MALS (87.05 kDa); also called EcRraA
stoichiometry N [3]: 6

— paper PMC5738090, “Functional implications of hexameric assembly of RraA proteins from Vibrio vulnificus” (PLoS ONE, 2017)
